Results reported in patent publication US20230374132A1.
Changes are numbered by the printed parent chain. Values belong to the binder of their own block, whether it stands above or below them.

What was measured:
[1] = target: human CD3E&G complex (Sino Biological Inc., CT041-H0305H) (human) (UniProt P07766); experiment: SPR, antigen on chip
[2] = target: cynomolgus monkey CD3 E&D complex protein (Sino Biological Inc., CT032-00323H) (cynomolgus monkey) (UniProt Q95LI5); experiment: SPR, antigen on chip
cynomolgus monkey CD3 E&D complex protein (Sino Biological Inc., CT032-00323H) (cynomolgus monkey), sequence (Q95LI5 22-117, chain 1 of 2): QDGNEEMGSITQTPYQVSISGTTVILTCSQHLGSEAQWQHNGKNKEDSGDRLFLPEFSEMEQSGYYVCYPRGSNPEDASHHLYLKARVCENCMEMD
cynomolgus monkey CD3 E&D complex protein (Sino Biological Inc., CT032-00323H) (cynomolgus monkey), sequence (Q95LI8 22-105, chain 2 of 2, further chain): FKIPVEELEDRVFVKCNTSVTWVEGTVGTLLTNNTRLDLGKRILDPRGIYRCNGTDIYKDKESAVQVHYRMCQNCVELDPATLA

human CD3E&G complex (Sino Biological Inc., CT041-H0305H) (human), sequence (P07766 23-126, chain 1 of 2): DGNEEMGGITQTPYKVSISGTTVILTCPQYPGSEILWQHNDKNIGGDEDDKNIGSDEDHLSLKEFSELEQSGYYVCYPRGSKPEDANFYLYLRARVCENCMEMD
human CD3E&G complex (Sino Biological Inc., CT041-H0305H) (human), sequence (P09693 23-116, chain 2 of 2, further chain): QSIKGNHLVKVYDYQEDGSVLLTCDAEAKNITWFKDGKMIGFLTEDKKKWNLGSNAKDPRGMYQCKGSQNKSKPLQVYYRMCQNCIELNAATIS

B1: SGN70-sp34.24HL (bispecific antibody, part only; not given: anti-CD70 Fab arm and Fc, not shown: another chain or arm of the molecule; a dimerising Fc or GST; large carriers; small tags and cut ends)
scFv: EVQLVESGGGLVQPGGSLKLSCAASGFTFNTYAMNWVRQASGKGLEWVGRIRSKYNNYATYYADSVKDRFTISRDDSKSTLYLQMNSLKTEDTAVYYCARHGNFGQSYVSWFAYWGQGTTVTVSSGGGGSGGGGSGGGGSGGGGSQAVVTQEPSLTVSPGGTVTLTCRSSTGAVTTSNYANWVQQKPGQAPRGLIGGTNKRAPGVPARFSGSLLGDKAALTLLGAQPEDEAEYYCALWYSNLWVFGQGTKLTVL
Kd [1]: 110 nM
koff [1]: 0.029 s⁻¹
kon [1]: 265000 M⁻¹ s⁻¹
Kd [2]: 179 nM
koff [2]: 0.0302 s⁻¹
kon [2]: 169000 M⁻¹ s⁻¹

B2: SGN70-sp34.87HL (bispecific antibody, part only; not given: anti-CD70 Fab arm and Fc, not shown: another chain or arm of the molecule; a dimerising Fc or GST)
scFv: B1 scFv with G102Y
Kd [1]: 501 nM
koff [1]: 0.253 s⁻¹
kon [1]: 504000 M⁻¹ s⁻¹
Kd [2]: 633 nM
koff [2]: 0.195 s⁻¹
kon [2]: 308000 M⁻¹ s⁻¹

B4: SGN70-sp34.97HL (bispecific antibody, part only; not given: anti-CD70 Fab arm and Fc, not shown: another chain or arm of the molecule; a dimerising Fc or GST)
scFv: B1 scFv with Y55A, N56G, N57G
Kd [1]: 5200 nM
koff [1]: 0.416 s⁻¹
kon [1]: 79900 M⁻¹ s⁻¹
Kd [2]: 5500 nM
koff [2]: 0.705 s⁻¹
kon [2]: 128000 M⁻¹ s⁻¹

B5: SGN70-sp34.24LH (bispecific antibody, part only; not given: anti-CD70 Fab arm and Fc, not shown: another chain or arm of the molecule; a dimerising Fc or GST; large carriers; small tags and cut ends)
scFv: QAVVTQEPSLTVSPGGTVTLTCRSSTGAVTTSNYANWVQQKPGQAPRGLIGGTNKRAPGVPARFSGSLLGDKAALTLLGAQPEDEAEYYCALWYSNLWVFGQGTKLTVLGGGGSGGGGSGGGGSGGGGSEVQLVESGGGLVQPGGSLKLSCAASGFTFNTYAMNWVRQASGKGLEWVGRIRSKYNNYATYYADSVKDRFTISRDDSKSTLYLQMNSLKTEDTAVYYCARHGNFGQSYVSWFAYWGQGTTVTVSS
Kd [1]: 98 nM
koff [1]: 0.0146 s⁻¹
kon [1]: 150000 M⁻¹ s⁻¹
Kd [2]: 141 nM
koff [2]: 0.0158 s⁻¹
kon [2]: 113000 M⁻¹ s⁻¹

B10: SGN70-sp34.87LH (bispecific antibody, part only; not given: anti-CD70 Fab arm and Fc, not shown: another chain or arm of the molecule; a dimerising Fc or GST)
scFv: B5 scFv with G231Y
Kd [1]: 335 nM
koff [1]: 0.107 s⁻¹
kon [1]: 321000 M⁻¹ s⁻¹
Kd [2]: 544 nM
koff [2]: 0.0466 s⁻¹
kon [2]: 85700 M⁻¹ s⁻¹

Continued, values first:

Kd [1]: 480 nM
koff [1]: 0.167 s⁻¹
kon [1]: 347000 M⁻¹ s⁻¹
Kd [2]: 658 nM
koff [2]: 0.177 s⁻¹
kon [2]: 269000 M⁻¹ s⁻¹
B3: SGN70-sp34.101HL (bispecific antibody, part only; not given: anti-CD70 Fab arm and Fc, not shown: another chain or arm of the molecule; a dimerising Fc or GST; large carriers)
scFv: B1 scFv with Y108A, V109A

Kd [1]: 8060 nM
koff [1]: 0.993 s⁻¹
kon [1]: 123000 M⁻¹ s⁻¹
Kd [2]: 14600 nM
koff [2]: 0.217 s⁻¹
kon [2]: 14900 M⁻¹ s⁻¹
B6: SGN70-sp34.99LH (bispecific antibody, part only; not given: anti-CD70 Fab arm and Fc, not shown: another chain or arm of the molecule; a dimerising Fc or GST)
scFv: B5 scFv with F233A, G234Y

Kd [1]: 4060 nM
koff [1]: 0.201 s⁻¹
kon [1]: 49700 M⁻¹ s⁻¹
Kd [2]: 6490 nM
koff [2]: 0.749 s⁻¹
kon [2]: 115000 M⁻¹ s⁻¹
B7: SGN70-sp34.80LH (bispecific antibody, part only; not given: anti-CD70 Fab arm and Fc, not shown: another chain or arm of the molecule; a dimerising Fc or GST)
scFv: B5 scFv with Y161A

Kd [1]: 409 nM
koff [1]: 0.119 s⁻¹
kon [1]: 290000 M⁻¹ s⁻¹
Kd [2]: 614 nM
koff [2]: 0.144 s⁻¹
kon [2]: 235000 M⁻¹ s⁻¹
B8: SGN70-sp34.101LH (bispecific antibody, part only; not given: anti-CD70 Fab arm and Fc, not shown: another chain or arm of the molecule; a dimerising Fc or GST; large carriers)
scFv: B5 scFv with Y237A, V238A

Kd [1]: 3110 nM
koff [1]: 0.253 s⁻¹
kon [1]: 81300 M⁻¹ s⁻¹
Kd [2]: 5220 nM
koff [2]: 0.333 s⁻¹
kon [2]: 63800 M⁻¹ s⁻¹
B9: SGN70-sp34.97LH (bispecific antibody, part only; not given: anti-CD70 Fab arm and Fc, not shown: another chain or arm of the molecule; a dimerising Fc or GST)
scFv: B5 scFv with Y184A, N185G, N186G
